Test system: K4 kissing-loop RNA reporter
Test: apparent KD of K4 kissing-loop reporter; higher = weaker reporter binding
Conditions: Eterna round: R107
Method: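 RNA-MaP round R107: designed RNA switches with theophylline, tryptophan, arginine or FMN aptamers are transcribed on-chip within common flanks. They are titrated with a labelled K4 kissing-loop RNA reporter in RNA-MaP buffer (100 mM Tris pH 7.5, 80 mM KCl, 4 mM MgCl2), without ligand or with the indicated ligand. Median apparent KD per design.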

[1] = input ligand: theophylline 20 uM
[2] = input ligand: tryptophan 2.4 mM
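Also: bound reporter read as fluorescence of individual clusters on recovered sequencing chips by microscopy, with normalized cluster intensities fitted with a binding model.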

Sequence | apparent KD of K4 kissing-loop reporter (input ligand: FMN 200 uM) [nM] | apparent KD of K4 kissing-loop reporter (input ligand: arginine 13.2 mM) [nM] | apparent KD of K4 kissing-loop reporter (input ligand: none) [nM] | apparent KD of K4 kissing-loop reporter [1] [nM] | apparent KD of K4 kissing-loop reporter [2] [nM]
CGUCACAAACCUAGUCAAGUGAUGUUUGGCCGAGGACCGGUACGGCCGCCACUCGCUCCUGUCACCCAUUCGUGUGUCGCGGACU [theeternabot_exclusion_KL_Trp_A_5] | 377 | 148 | 316 | 473 | 297
UAUAUAUGAUGUGAUACCAGUGAAAAGCCAGUGAUGUUGGAAGAACUGGUAUAUAAAUAACACCCUUGGCAGCACAAUCACGUAU [theophylline b exclusion] | 271 | 261 | 266 | 382 | 268
AGAAAGAAGGCGGCCGCCACUCUGAUGGGCGAAAGCCCAUUUUUUUAGCAGUGAUGUUGCUUGUUGAGGACCGGGCCAAAGAAAU [2nd] | 179 | 174 | 155 | 193 | 114
CGCAAGCAGCUAGUGAUGUUGGCCGCCUUGCGAGGACCGGUACGGCCGCCACUCGGAGGCGGCUACUGAUAAACCGUCUAACGGA [KL-XTryp-A10] | 87.5 | 67.2 | 84.3 | 70.6 | 224
GUUACGCAUGGAAGGAGCGCUCUCAUGCUUAAUAACACAGUGAUGUUGUGAAUUUGCAUAAAGCAGGUAGGUCGCCAUGUGUAAC [Ex Arginine B K4 8] | 399 | 303 | 359 | 291 | 332
UAAUAUAACCGAAGGAGCGCGUGGGCGCAGUGAUGUUGCGCCCGACAUCACUUCAACUAAACGCAGGUAGGUCGCGGUAAUAAUA [Arginine B (Excl) V1] | 134 | 83.1 | 104 | 84.2 | 98.4
CUGAGCCUGACGCAAGUCAGGCUCUGCGAGCGAGGACCGGUACGGCCGCCACUCGGUGCAGUGAUGUUGCAUGGCCGCAAGGCCG [#2 Exclusion - Tryptophan A Attempt #21 (HarryS)] | 254 | 215 | 274 | 218 | 306
AGGUACAAAAGUACCGCUAGAUCCACGGAAGGAGCGGCCGAAAGGCCAGGUAGGUCGCCGGGCAGUGAUGUUGCCGGAUCUAGCA [Omei KL Arginine A SS A v2] | 194 | 171 | 200 | 185 | 169
AGAACUGUCUGAGAUACCAGCCAUAGGAGUGAUGUUCCUAGCUCCACAAAGUGGAGCCAUGGCCCUUGGCAGCUCAGACAGUUCA [Omei KL Theo B SS A v8] | 219 | 191 | 219 | 133 | 206
AGAGUUAUGCGAGGAUAUGCGGUUAGUACUCAAAGAGUACUAACGGCAGAGUGAUGUUCUGUGAAAGCAGAAGGUGCAUAACUCA [Omei KL FMN B SS B v9] | 274 | 523 | 1090 | 327 | 1360
UGGAUAUAGUGAUGUUAUAUAGAGAGUGAUACCAGUUUAGAGAAGAACCCUUGGCAGCAUAGAAGAGUAUCAUUGGAGAAGAAUG [ExTheophyl.Aq] | 243 | 193 | 242 | 181 | 155
AUUAGGCGAAGUGAUGUUUCAUAUAAUGGCAAGGAUAUGUCCUUACACAGAAGGUGCUCUUAGUCAGGUUAUAUUAGGACUGCUA [theeternabot_exclusion_KL_FMN_A_42] | 446 | 434 | 460 | 474 | 340
ACGCUAGCUACCGAAAGGUAGCUAGCGAGUGAGGAUAUGUGGAAACACAGAAGGCACAGCGCAGUGAUGUUGUGCGGCGAAAGCC [whbob_SS_FMNA__2th166] | 462 | 275 | 418 | 231 | 803
GAUUUAGAGGCGGCCGCCACUAGUGAUGUUAGUGAUGUUUGAUACUGAAUAUAUCUGCGUUUAGAUAGGACCGGGCCAGAUGGAG [qzwqmullin] | 234 | 164 | 181 | 193 | 177
CCCUCACGAGUGAUGUUCGUAGGGUACAGUCAGGAUAUCAUGCGGUUGAGAAGGGACAGAGAGGGCGGCGGCGGGUUGCUCAUCG [Rabele] | 150 | 125 | 153 | 166 | 124
UGUGUUGUUUUGAUGUUUGGUGUUGCUUGGCAGGAUAUCGUAGAGGCGAGAAGGGCUUGUGAGCGGUAUGAGUGAUGUUUGUAGG [zwwrmullin] | 485 | 282 | 455 | 416 | 336
UUUGUAUCGGGAAGGAGCGUGAAUGAUAAUGGAUAUAGUGAUGUUAUAUAUAAGAACGAAUCGCAGGUAGGUCGCCCGGAUGACU [SSArgB.Q] | 431 | 388 | 413 | 400 | 252

Sequence | apparent KD of K4 kissing-loop reporter (input ligand: FMN 200 uM) [nM] | apparent KD of K4 kissing-loop reporter (input ligand: arginine 13.2 mM) [nM] | apparent KD of K4 kissing-loop reporter (input ligand: none) [nM] | apparent KD of K4 kissing-loop reporter [1] [nM] | apparent KD of K4 kissing-loop reporter [2] [nM]
UGACGUUUGGGAAGGAGCGGAAUGUAAUACGGAGCGCGUGGAGAUGCAGUGAUGUUGCAGAUCCAGGUAGGUCGCCCAAGGGACG [Zati] | 95.3 | 83.5 | 80.9 | 79.3 | 79.6
UAUACGCUAGUGAUGUUGGCGAAGACUGAAGGAGCGUGCGAGAGUACAGGUAGGUCGCAGUCAGACAGAUUGUACCUGUCUUAUG [Arg A SS t10] | 268 | 243 | 295 | 349 | 356
CGCAGUGAUGUUGCGAGUAGCUACAGGGAAGGAGCGUGCUAGAGCACAGGUAGGUCGCCCAGUGGCAGUGAUGUUGCCAAAGGGU [Exclusion ARginine A GF 17] | 126 | 119 | 118 | 126 | 116
GCAGUGAUGUUGCGGAUGUACAGUGGGAUACGAGGACCGGUACGGCCGCCACUCGUACAGAACAAGCUAAUACAUCGAUAGGUGA [XII] | 265 | 281 | 339 | 373 | 301
GGAGAGAACUGAAGGAGCGCCAAGAGAGAAGGAAAUAUAGUGAUGUUAUAUAAGAGAGAGAGGCAGGUAGGUCGCAGAGGGAGGA [#03 K4 Arginine B Exclusion] | 185 | 162 | 127 | 175 | 112
UGUUCAAGUGAUGUUUGAGACUAGGUGGAUACCAGCGCAUGCAGUCGCCCUUGGCAGCCAGAAACCAACGCCGCGCGCUUCGGCU [theeternabot_sameState_KL_Theo_A_39] | 342 | 325 | 464 | 350 | 334
UUGUUUUACUGAAGGAGCGGCAAUUGAUACGUAGAUAUAGUGAUGUUAUAUAAGAUAGAGAGCCAGGUAGGUCGCAGAUUUGUUU [ExArgB.U] | 221 | 193 | 188 | 183 | 173
CAUACGCAUGGAGGAUAUGAGAUUACUCAUAUCAUUUAAUAUUCUCAGUGAUGUUGAGAUUUAAACUCAGAAGGCCAUGUGUAUG [Ex FMN B 12] | 262 | 331 | 358 | 356 | 380
GGGUGGUAGGCGGCCGCCACUCUGAGCACCCACUGAGUGAUGUUCGUGGCGUAAGCCUGUUCAUAGAGGACCGGGUUUGUUGUUC [Exclusion Tryptophan B GF 16] | 507 | 252 | 514 | 470 | 376
UGUUUUUACUGAAGGAGCGGCAAUUGAUACGUAGAUAUAGUGAUGUUAUAUAAGAUAGAGAGCCAGGUAGGUCGCAGAGUUUUUC [ExArgB.Z] | 167 | 167 | 161 | 179 | 154
UAGCGUCUGCGAGGAUAUCGGAUUAGAGUGAUGUUCUAAAGACGCCCAGUGAUGUUGGAUGCGAUACGAGAAGGCGCUGGGCGCG [Same State FMN B GF7] | 182 | 358 | 399 | 332 | 297
UUUUAAAUAUCUGAUACCAGAGAAAAUAUAUGUAGUGAUGUUAUAUACAAAAUAAUUAAGCUCCCUUGGCAGCAGUAUUAAUUUU [AstrosExc-TheB#3] | 612 | 658 | 946 | 705 | 541
UGGAGUUGACGAAAAGUCAACUCCCGAGAAGGAGCGGACGAAAGUCCAGGUAGGUCGCUCACUACCAGUGAUGUUGGUACUAAAA | 148 | 196 | 129 | 135 | 111
UUAUUAAUAACAGAUACCAGUCCAGAAUGAAAACUAUAGUGAUGUUAUAAUAAAGGGAAGGACCCUUGGCAGCUGUAAUAUAUUU [AstrosSSTheB#2] | 525 | 427 | 497 | 452 | 394
AUUAUAAAGGCGGCCGCCACUAGUGAUGUUAGUGACUUAUGUAUUAUCAUAAGAAUAAAAUAAAAUAGGACCGGGCCAAAAUAUU [AstrosExTryB#3] | 527 | 384 | 452 | 448 | 483
AAGAGGUAGGCGGCCGCCACUAGUUGUGAACACAUACAAGCCAGUGAUGUUGGUAUGGUGGGCGGUAGGACCGGGCCUACCUGAA [Exclusion - Tryptophan B (Freestyle 17)] | 230 | 263 | 257 | 250 | 243

— the supplement of paper PMC9170038
